The text below walks through data of publication PMC11329502.

For experiment [1], the target named is Recombinant mouse nidogen-2 protein (mouse) (UniProt O88322). Kind of experiment: ELISA. (ELISA stands for enzyme-linked immunosorbent assay.)
The target is the same in experiment [2].

In general, Kd refers to the equilibrium constant for the complex coming apart.

Chain of UniProt O88322 (O88322 31-1403): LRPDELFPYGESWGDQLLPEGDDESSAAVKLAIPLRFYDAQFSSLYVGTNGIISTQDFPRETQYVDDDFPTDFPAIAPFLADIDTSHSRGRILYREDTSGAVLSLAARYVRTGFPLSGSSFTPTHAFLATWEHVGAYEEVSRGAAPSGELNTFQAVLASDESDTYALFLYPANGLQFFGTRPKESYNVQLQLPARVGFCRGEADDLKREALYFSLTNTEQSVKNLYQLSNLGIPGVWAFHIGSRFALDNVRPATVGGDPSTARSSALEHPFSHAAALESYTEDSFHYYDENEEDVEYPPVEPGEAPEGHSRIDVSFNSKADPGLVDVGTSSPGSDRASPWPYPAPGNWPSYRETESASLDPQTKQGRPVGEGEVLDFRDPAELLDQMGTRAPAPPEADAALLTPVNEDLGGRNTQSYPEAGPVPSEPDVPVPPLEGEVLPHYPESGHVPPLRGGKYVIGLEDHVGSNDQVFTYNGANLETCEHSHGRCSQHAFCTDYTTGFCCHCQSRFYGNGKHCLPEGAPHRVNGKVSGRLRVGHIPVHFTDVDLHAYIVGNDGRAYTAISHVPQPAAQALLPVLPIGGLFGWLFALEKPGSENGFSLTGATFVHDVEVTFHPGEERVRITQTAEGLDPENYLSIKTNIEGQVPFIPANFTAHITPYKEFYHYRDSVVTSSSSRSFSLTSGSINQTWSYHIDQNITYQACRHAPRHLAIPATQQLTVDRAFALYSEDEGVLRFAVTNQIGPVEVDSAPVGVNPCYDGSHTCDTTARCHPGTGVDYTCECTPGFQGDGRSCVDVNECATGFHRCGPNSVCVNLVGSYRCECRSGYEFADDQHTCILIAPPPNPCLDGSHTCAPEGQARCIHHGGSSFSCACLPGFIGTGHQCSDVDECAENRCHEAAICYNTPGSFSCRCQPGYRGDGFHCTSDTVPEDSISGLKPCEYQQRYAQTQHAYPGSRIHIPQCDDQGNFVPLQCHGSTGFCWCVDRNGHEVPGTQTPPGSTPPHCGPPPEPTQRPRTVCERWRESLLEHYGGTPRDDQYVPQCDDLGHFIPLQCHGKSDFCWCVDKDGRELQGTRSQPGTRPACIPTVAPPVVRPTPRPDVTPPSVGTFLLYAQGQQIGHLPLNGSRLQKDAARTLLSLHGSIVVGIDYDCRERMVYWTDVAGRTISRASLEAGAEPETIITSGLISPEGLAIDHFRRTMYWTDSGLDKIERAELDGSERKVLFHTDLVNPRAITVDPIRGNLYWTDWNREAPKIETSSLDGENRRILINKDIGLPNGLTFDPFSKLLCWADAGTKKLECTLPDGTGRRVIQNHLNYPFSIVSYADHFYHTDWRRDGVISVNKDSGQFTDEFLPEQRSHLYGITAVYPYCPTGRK

As for LAR FNIII5-7-FLAG (domain or fragment), the Kd in experiment [1] stood at 6800 nM.

Regarding PTPRδ Ig1-3-His (domain or fragment), the Kd in experiment [1] is 2000 nM.

As to “LAR FNIII2-FLAG (6×His-LAR FNIII2-FLAG) (domain or fragment)”, in experiment [2], the uptake of HCT-555 in mouse motor neurons pre-incubated with 20 μM of the domain, against buffer; pair to be blocked: nidogen and endogenous LAR was determined as 30%; the uptake of nidogen-2 in axons of mouse motor neurons pre-incubated with 20 μM of the domain, against buffer; pair to be blocked: nidogen and endogenous LAR was found to be 25%. The Kd in experiment [1] came out at 2000 nM.

In the case of “PTPRδ FNIII5-7-FLAG (domain or fragment)”, the Kd in experiment [1] amounted to 10000 nM.

In the case of “LAR FNIII4-FLAG (6×His-LAR FNIII4-FLAG) (domain or fragment)”, in experiment [2], the uptake of HCT-555 in mouse motor neurons pre-incubated with 20 μM of the domain, against buffer; pair to be blocked: nidogen and endogenous LAR amounted to 30%; the uptake of nidogen-2 in axons of mouse motor neurons pre-incubated with 20 μM of the domain, against buffer; pair to be blocked: nidogen and endogenous LAR amounted to 25%. The Kd in experiment [1] came to 1900 nM.

Regarding “LAR FNIII5-FLAG (6×His-LAR FNIII5-FLAG) (domain or fragment)”, in experiment [1], the dissociation constant Kd worked out at 1400 nM.

Consider LAR FNIII1-4-FLAG (domain or fragment), for which the Kd in experiment [1] amounted to 5600 nM.

Consider “LAR FNIII7-FLAG (6×His-LAR FNIII7-FLAG) (domain or fragment)”, for which, in experiment [2], the uptake of HCT-555 in mouse motor neurons pre-incubated with 20 μM of the domain, against buffer; pair to be blocked: nidogen and endogenous LAR is 30%; the uptake of nidogen-2 in axons of mouse motor neurons pre-incubated with 20 μM of the domain, against buffer; pair to be blocked: nidogen and endogenous LAR came out at 25%. Also, the equilibrium dissociation constant (Kd) in experiment [1] was 2500 nM.
